Molecular target: T1, soluble human GPC3 (human, UniProt P51654 25-563)
T1 construct: range 25-563; whole entry named for human GPC3 (NP_001158089.1); also called glypican 3
Test: SPR (Biacore)

T1 sequence (P51654 25-563 limits assumed): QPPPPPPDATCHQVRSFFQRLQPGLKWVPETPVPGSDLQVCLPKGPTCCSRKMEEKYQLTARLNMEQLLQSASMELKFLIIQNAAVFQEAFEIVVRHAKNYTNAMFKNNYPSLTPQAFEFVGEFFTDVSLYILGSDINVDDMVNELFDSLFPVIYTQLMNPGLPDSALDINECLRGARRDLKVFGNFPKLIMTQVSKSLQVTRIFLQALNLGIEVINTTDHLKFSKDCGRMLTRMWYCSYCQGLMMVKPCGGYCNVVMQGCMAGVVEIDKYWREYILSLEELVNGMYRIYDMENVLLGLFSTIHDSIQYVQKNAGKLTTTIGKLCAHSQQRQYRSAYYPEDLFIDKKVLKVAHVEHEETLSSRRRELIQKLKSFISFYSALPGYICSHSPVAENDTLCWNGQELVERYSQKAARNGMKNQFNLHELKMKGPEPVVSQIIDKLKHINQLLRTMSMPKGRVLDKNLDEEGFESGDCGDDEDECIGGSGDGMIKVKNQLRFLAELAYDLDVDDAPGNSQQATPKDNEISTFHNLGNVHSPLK

B1: H0610-G1dh/none-Hi-Kn010G3/L0129-k0 (antibody, V domains shown)
VH: QVQLVQSGAEVKKPGASVKVSCKASGYTFTDYEMHWIRQPPGQGLEWIGAIDGKTPDTAYSQKFKGRVTLTADKSTSTAYMELSSLTSEDTAVYYCTRFYSYTYWGQGTLVTVSS
VL: DIVMTQSPLSLPVTPGEPASISCRSSQSLVHSNRNTYLHWYQQKPGQAPRLLIYKVSNRRSGVPDRFSGSGSGTDFTLKISRVEAEDVGVYYCGQGTQVPYTFGQGTKLEIK
notes: one-arm
Kd: 4.54 nM
